Data as given in patent US20100272753A1.

Target: native circumsporozoite protein (CSP) on intact P. falciparum sporozoites (Plasmodium falciparum) (UniProt Q7K740)
Test: indirect immunofluorescence on intact P. falciparum sporozoites

UniProt Q7K740, sequence (Q7K740 19-374): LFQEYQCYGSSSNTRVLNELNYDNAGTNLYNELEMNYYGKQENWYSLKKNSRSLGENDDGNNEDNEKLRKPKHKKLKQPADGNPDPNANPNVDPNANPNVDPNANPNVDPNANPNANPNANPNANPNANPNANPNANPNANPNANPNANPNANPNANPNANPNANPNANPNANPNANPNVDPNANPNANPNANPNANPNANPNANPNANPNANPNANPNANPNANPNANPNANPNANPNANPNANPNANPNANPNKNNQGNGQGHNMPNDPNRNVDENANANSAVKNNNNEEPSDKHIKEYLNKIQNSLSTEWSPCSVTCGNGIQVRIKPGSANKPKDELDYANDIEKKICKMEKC

“anti-P. falciparum NANP monoclonal antibody 2A10” was tested. Which dilution positive in immunofluorescence (reciprocal dilution) did it give?
The dilution positive in immunofluorescence (reciprocal dilution) was 16000.
